Results on five molecules are retold here after paper PMC8387031, “Structures of Substrate Complexes of Foamy Viral Protease-Reverse Transcriptase”.

Series [1] has as its target MFV PR-RT ΔRH (deletion variant of MFV PR-RT that lacked the RH domain) (marmoset foamy virus (MFV)). Briefly: crystal structure; MFV PR-RT ΔRH at 5 mg/ml with 13-bp dsDNA with a 2-nt 5' overhang (substrate 2) at a 1:1 molar ratio; hanging drop; 0.1 M DL-malic acid pH 7.0, 10% PEG 3350; space group C 2.
The target in another series is MFV PR-RT ΔRH (marmoset foamy virus, UniProt D5JWV1 1-588). Briefly: X-ray crystallography; asymmetric homodimer; 1:1 mix; GF/MALS: 20 mM HEPES pH 7.0, 250 mM NaCl, 5% glycerol, 0.5 mM EDTA, 1 mM DTT; cryo-EM: 150 mM NaCl, 20 mM HEPES pH 7.0, 1 mM DTT; crystals: N1 Morpheus MES-imidazole pH 6.5, 18 C; N2 0.1 M DL-malic acid pH 7.0, 10% PEG 3350. Conditions: protein: recombinant; tags: 6xHis-SUMO (pET28 vector); chain copies: 2; 13 bp, 5' overhang 2 nt on template.

The target in series [2] is T1, MFV PR-RT full-length (marmoset foamy virus, UniProt D5JWV1 1-751). Briefly: GF/MALS; 2:1 protein:NA; 0.5 mM EDTA; single peak 123.3 kDa, one protein per hybrid; GF/MALS: 20 mM HEPES pH 7.0, 250 mM NaCl, 5% glycerol, 0.5 mM EDTA, 1 mM DTT; cryo-EM: 150 mM NaCl, 20 mM HEPES pH 7.0, 1 mM DTT; crystals: N1 Morpheus MES-imidazole pH 6.5, 18 C; N2 0.1 M DL-malic acid pH 7.0, 10% PEG 3350. Conditions: protein: recombinant; tags: 6xHis-SUMO (pET28 vector); 28 bp, 5' overhang 6 nt on RNA.

Series [3] addresses T1, MFV PR-RT full-length. Kind of series: cryo-EM (4.8 A); asymmetric dimer; EMD-12698; GF/MALS: 20 mM HEPES pH 7.0, 250 mM NaCl, 5% glycerol, 0.5 mM EDTA, 1 mM DTT; cryo-EM: 150 mM NaCl, 20 mM HEPES pH 7.0, 1 mM DTT; crystals: N1 Morpheus MES-imidazole pH 6.5, 18 C; N2 0.1 M DL-malic acid pH 7.0, 10% PEG 3350. The settings on record: protein: recombinant; tags: 6xHis-SUMO (pET28 vector); 22 bp, 5' overhang 2 nt on template.

The target of series [4] is T1, MFV PR-RT full-length. Kind of series: X-ray crystallography; monomer; 1:1 mix; GF/MALS: 20 mM HEPES pH 7.0, 250 mM NaCl, 5% glycerol, 0.5 mM EDTA, 1 mM DTT; cryo-EM: 150 mM NaCl, 20 mM HEPES pH 7.0, 1 mM DTT; crystals: N1 Morpheus MES-imidazole pH 6.5, 18 C; N2 0.1 M DL-malic acid pH 7.0, 10% PEG 3350. The settings on record: protein: recombinant; tags: 6xHis-SUMO (pET28 vector); 15 bp; RNA 5' overhang 2 nt and 3' overhang 1 nt; recessed DNA 3' end.

Turning to “MFV PR-RT ΔRH (deletion variant of MFV PR-RT that lacked the RH domain) (domain or fragment)”, the stoichiometry N (usually the number of molecules, sites or subunits per partner or assembly) in series [1] worked out at 2.

B1: substrate 2 dsDNA (dsDNA)
DNA 1: AACAGAGTGCGACAC
DNA 2: GTGTCGCACTCTG
Regarding B1, in the series with MFV PR-RT ΔRH, the binding result is listed as “binds”.

B2: GF/MALS RNA/DNA hybrid (DNA:RNA)
RNA: GUGAGCGAACAGAGUGCGACACCUGAUUCCAUGA
DNA: TCATGGAATCAGGTGTCGCACTCTGTTC
B2: in the series with MFV PR-RT full-length [2], the binding result is recorded as “binds”.

B3: substrate 3 dsDNA (dsDNA)
DNA 1: AACAGAGTGCGACACCTGATTCCA
DNA 2: TGGAATCAGGTGTCGCACTCTG
As to B3, in the series with MFV PR-RT full-length [3], the binding result is reported as “binds”.

B4: substrate 1 PPT RNA/DNA hybrid (DNA:RNA)
RNA: UUCUUGUCCAGGAGAGGG
DNA: CCTCTCCTGGACAAG
For B4, the binding result with MFV PR-RT full-length [4] is “binds”.
